Source: patent publication US9976167B2, “Group of glycosyltransferases and use thereof” (Shanghai Institutes For Biological Sciences, Chinese …, priority 2012, dated 2018)

B1: 3GT1: glycosyltransferase protein with 495 amino acids, SEQ ID NO.: 22; homology with UGT73C10 of Barbarea vulgaris higher than 99% (protein, listed as Barbarea vulgaris)
chain: MVSEITHKSYPLHFVLFPFMAQGHMIPMVDIARLLAQRGVKITIVTTPHNAARFENVLSRAIESGLPISIVQVKLPSQEAGLPEGNETFDSLVSTKLLVPFFKAVNMLEEPVQKLFEEMSPQPSCIISDFCLPYTSKIAKKFNIPKILFHGMCCFCLLCMHVLRKNREILENLKSDKEHFVVPYFPDRVEFTRPQVPLATYVPGEWHEIKEDMVEADKTSYGVIVNTYQELEPAYANGYKEARSGKAWTIGPVSLCNKVGADKAERGNKADIDQDECLKWLDSKEEGSVLYVCLGSICSLPLSQLKELGLGLEESQRPFIWVVRGWEKNKELLEWFSESGFEERVKDRGLLIKGWSPQMLILAHHSVGGFLTHCGWNSTLEGITSGVPLLTWPLFGDQFCNQKLVVQVLKVGVSAGVEEVTNWGEEEKIGVLVDKEGVKKAVEELMGESDDAKEIRKRVKELGQLAHKAVEEGGSSHSNITSLLEDIMQLAQPNN
modifications: 3GT1
B2: 3GT2: glycosyltransferase protein with 495 amino acids, SEQ ID NO.: 24; homology with UGT73C12 of Barbarea vulgaris higher than 99% (protein, listed as Barbarea vulgaris)
chain: MVSEITHKSYPLHFVLFPFMAQGHMIPMVDIARLLAQRGVKITIVTTPHNAARFKNVLSRAIESGLPISIVQVKLPSQEAGLPEGNETLDSLVSMELMIHFLKAVNMLEEPVQKLFEEMSPQPSCIISDFCLPYTSKIAKKFNIPKILFHGMCCFCLLCMHILRKNREIVENLKSDKEHFVVPYFPDRVEFTRPQVPVATYVPGDWHEITEDMVEADKTSYGVIVNTYQELEPAYANDYKEARSGKAWTIGPVSLCNKVGADKAERGNKADIDQDECLKWLNSKEEGSVLYVCLGSICNLPLSQLKELGLGLEESQRPFIWVIRGWEKNKELHEWFSESGFEERIKDRGLLIKGWAPQMLILSHHSVGGFLTHCGWNSTLEGLTAGLPLLTWPLFADQFCNEKLAVQVLKAGVSAGVDQPMKWGEEEKIGVLVDKEGVKKAVEELMGESDDAKEIRRRAKELGELAHKAVEEGGSSHSNITSLLEDIMQLAQSNN
modifications: 3GT2
B3: 3GT3: glycosyltransferase protein with 497 amino acids, SEQ ID NO.: 41; homology with a Medicago truncatula glycosyltransferase higher than 99% (protein, listed as Medicago truncatula)
chain: MEGVEVEQPLKVYFIPFLASGHMIPLFDIATMFASRGQQVTVITTPANAKSLTKSLSSDAPSFLRLHTVDFPSQQVGLPEGIESMSSTTDPTTTWKIHTGAMLLKEPIGDFIENDPPDCIISDSTYPWVNDLADKFQIPNITFNGLCLFAVSLVETLKTNNLLKSQTDSDSDSSSFVVPNFPHHITLCGKPPKVIGIFMGMMLETVLKSKALIINNFSELDGEECIQHYEKATGHKVWHLGPTSLIRKTAQEKSERGNEGAVNVHESLSWLDSERVNSVLYICFGSINYFSDKQLYEMACAIEASGHPFIWVVPEKKGKEDESEEEKEKWLPKGFEERNIGKKGLIIRGWAPQVKILSHPAVGGFMTHCGGNSTVEAVSAGVPMITWPVHGDQFYNEKLITQFRGIGVEVGATEWCTSGVAERKKLVSRDSIEKAVRRLMDGGDEAENIRLRAREFGEKAIQAIQEGGSSYNNLLALIDELKRSRDLKRLRDLKLDD
modifications: 3GT3

Key:
prostate cancer cells = conditions: cited from earlier work
osteoclasts = conditions: cited from earlier work
[1] = Glycosyltransfering reaction with crude enzyme, substrate PPD; format: biochemical; conditions: crude enzyme: lysate supernatant of recombinant E. coli; UDP-glucose, 35° C., 12 hrs; TLC
Protocol: (§1) The lysate supernatant of the recombinant yeasts expressing the empty vector was used as control.
(§2) The reaction was conducted under 35° C. for 12 hrs, then stopped by adding 100 μL of butanol. The product were extracted, dried in vacuum, and dissolved in methanol.
(§3) The reaction products were first detected by thin layer chromatography (TLC).
(§4) The converted products of gGT25 were further identified by HPLC (FIG. 10 and FIG. 11). The retention time of peak 2 was identical to that of the CK standard sample; the retention time of peak 3 was identical to that of PPD. […] Peak 1, also present in the profile of the negative control, indicated its irrelevance to the conversion of PPD. 3 peaks were shown in FIG. 11, the retention time of peak 1 was identical to that of F1 standard sample and peak 3 was identical to that of PPT. […] Peak 2, also present in the profile of the negative control, indicated its irrelevance to the conversion of PPT.
(§5) According to the method as in Example 4, the cell lysate of recombinant yeasts expressing gGT13 and gGT30 were used to catalyze PPD and PPT.
The cell lysis supernatant of the recombinant E. coli was used as crude enzyme to conduct the glycosyltransfering reaction, and the reaction condition was identical to that of Example 4.
The reaction was conducted under 35° C. for 12 hrs. 100 μL of butanol was added to stop the reaction and the products were extracted. Upon vacuum drying, the product was dissolved by methanol. TLC was first used to detect the reaction product.
(§6) The glycosyltransfering reactions of ginsenosides and ginsengenins were catalyzed by using the lysis supernatant of the recombinant yeasts expressing 3GT1, 3GT2, 3GT3 and 3GT4 as crude enzymes. The lysis supernatant of recombinant E. coli expressing empty vectors was used as control. The 100 μL reaction system is shown as Table 3. The reaction was conducted under 35° C. for 12 hrs, then stopped by adding 100 μL of butanol. The product were extracted, dried in vacuum, and dissolved in methanol.
The reaction was conducted under 35° C. for 12 hrs, and then stopped by adding 100 μL of butanol. The product were extracted, dried in vacuum, and dissolved in methanol. The reaction products were first detected by thin layer chromatography (TLC) (FIG. 35).

[2] = Glycosyltransfering reaction with crude enzyme, substrate PPT; format: biochemical; conditions: crude enzyme of Example 11; 35° C., 12 hrs; TLC
Protocol: as §1, §2, §3, §4, §5, §6

[3] = Glycosyltransfering reaction with crude enzyme, substrate DM; format: biochemical; conditions: 35° C., 12 hrs, TLC; for glycosylation of C3-OH of DM (product 3-O-β-(D-glucopyranosyl)-Dammarenediol II): crude enzyme of Example 11; for substrate that could be catalyzed: DM: crude enzyme: lysate supernatant of recombinant E. coli, UDP-glucose
Protocol: as §1, §2, §3, §6

[4] = Glycosyltransfering reaction with crude enzyme, substrate CK; format: biochemical; conditions: 35° C., 12 hrs, TLC; for glycosylation of C3-OH of CK (product F2): crude enzyme of Example 11; for substrate that could be catalyzed: CK: crude enzyme: lysate supernatant of recombinant E. coli, UDP-glucose
Protocol: as §5, §6

[5] = Glycosyltransfering reaction with crude enzyme, substrate F1; format: biochemical; conditions: 35° C., 12 hrs, TLC; for glycosylation of C3-OH of F1 (product 3-O-β-(D-glucopyranosyl)-F1): crude enzyme of Example 11; for substrate that could be catalyzed: F1: crude enzyme: lysate supernatant of recombinant E. coli, UDP-glucose
Protocol: as §5
The lysis supernatant of recombinant E. coli expressing empty vectors was used as control. The 100 μL reaction system is shown as Table 3. The reaction was conducted under 35° C. for 12 hrs, then stopped by adding 100 μL of butanol. The product were extracted, dried in vacuum, and dissolved in methanol.

[6] = Glycosyltransfering reaction with crude enzyme, substrate 25-OH-PPD; format: biochemical; conditions: 35° C., 12 hrs, TLC; for glycosylation of C3-OH of 25-OH-PPD (product 3-O-β-(D-glucopyranosyl)-25-OH-PPD): crude enzyme of Example 11; for substrate that could be catalyzed: 25-OH-PPD: crude enzyme: lysate supernatant of recombinant E. coli, UDP-glucose
Protocol: as §6

[7] = Glycosyltransfering reaction with crude enzyme, substrate lanosterol; format: biochemical; conditions: 35° C., 12 hrs, TLC; for glycosylation of C3-OH of lanosterol (product 3-O-β-(D-glucopyranosyl)-lanosterol): crude enzyme of Example 11; for substrate that could be catalyzed: lanosterol: crude enzyme: lysate supernatant of recombinant E. coli, UDP-glucose
Protocol: as §6

[8] = Glycosyltransfering reaction with crude enzyme, substrate 20(R)-PPD; format: biochemical; conditions: 35° C., 12 hrs, TLC; for catalysis of 20(R)-PPD (product 20(R)-ginsenoside Rh2): crude enzyme of Example 11; for substrate that could be catalyzed: 20(R)-PPD: crude enzyme: lysate supernatant of recombinant E. coli, UDP-glucose
[9] = Glycosyltransfering activities on ginsengenins and saponins: glycosylation site and specificity (summary); format: biochemical; conditions: for effect of the steric configuration of the hydroxyl or glycosyl at C20 on catalytic activity: 20(S)-type versus 20(R)-type substrates; for glycosylation site: C-3: Table 2, tetracyclic triterpenoid substrates; for substrate spectrum / specificity: comparison of 3GT1, 3GT2, 3GT3 and 3GT4, Table 6
Protocol: More than 100 predicted cDNA sequences of glycosyltransferases were extracted from the published expression profile data of the Panax plant. 60 cDNAs with full length were cloned, expressed, and subjected to the analysis of glycosyltransfering reaction.
as §1, §2, §6
The lysate supernatant of the recombinant yeast expressing empty vectors was used as control. The reaction was conducted under 35° C. for 12 hrs, and then stopped by adding 100 μL of butanol. The product were extracted, dried in vacuum, and dissolved in methanol.
The glycosyltransfering reactions of ginsenosides Rh2 and F2 were catalyzed by using the lysate supernatant of the recombinant yeasts expressing 3GT1, 3GT2, 3GT3 and 3GT4 as crude enzymes. The 100 μL reaction system is shown as Table 3. The reaction was conducted under 35° C. for 12 hrs, and then stopped by adding 100 μL of butanol. The product were extracted, dried in vacuum, and dissolved in methanol.

[10] = Glycosyltransfering reaction with crude enzyme, substrate PPT; format: biochemical; conditions: crude enzyme: lysate supernatant of recombinant E. coli; UDP-glucose, 35° C., 12 hrs; TLC

Molecule | substrate that could be catalyzed: PPD [1] | glycosylation of C3-OH of PPT (product 3-O-β-(D-glucopyranosyl)-PPT) [2] | glycosylation of C3-OH of DM (product 3-O-β-(D-glucopyranosyl)-Dammarenediol II) [3] | substrate that could be catalyzed: DM [3] | glycosylation of C3-OH of CK (product F2) [4] | substrate that could be catalyzed: CK [4] | glycosylation of C3-OH of F1 (product 3-O-β-(D-glucopyranosyl)-F1) [5] | substrate that could be catalyzed: F1 [5] | glycosylation of C3-OH of 25-OH-PPD (product 3-O-β-(D-glucopyranosyl)-25-OH-PPD) [6] | substrate that could be catalyzed: 25-OH-PPD [6] | glycosylation of C3-OH of lanosterol (product 3-O-β-(D-glucopyranosyl)-lanosterol) [7] | substrate that could be catalyzed: lanosterol [7] | catalysis of 20(R)-PPD (product 20(R)-ginsenoside Rh2) [8] | substrate that could be catalyzed: 20(R)-PPD [8] | effect of the steric configuration of the hydroxyl or glycosyl at C20 on catalytic activity [9] | glycosylation site: C-3 [9] | substrate spectrum / specificity [9] | substrate that could be catalyzed: PPT [10] | also measured
CC(C)=CCC[C@@](C)(O)[C@H]1CC[C@]2(C)[C@@H]1[C@H](O)C[C@@H]1[C@@]3(C)CC[C@H](O[C@@H]4O[C@H](CO)[C@@H](O)[C@H](O)[C@H]4O)C(C)(C)[C@@H]3CC[C@]12C [R-type ginsenoside Rh2, 3-O-β-(D-glucopyranosyl)-20(R)-protopanaxadiol] | – | – | – | – | – | – | – | – | – | – | – | – | – | – | – | – | – | – | inhibition of prostate cancer cells (prostate cancer cells): quite poor; cytotoxicity to osteoclasts (osteoclasts): without any cytotoxicity; inhibition of the generation of osteoclasts (osteoclasts): selectively inhibit
B1 | ✓ | could be glycosylated | could be glycosylated | ✓ | further glycosylating its C3-OH | ✓ | could be glycosylated | ✓ | could be glycosylated | ✓ | could be glycosylated | ✓ | could catalyze | ✓ | not affected | ✓ | most number of substrates | ✓ | –
B2 | ✓ | could be glycosylated | could be glycosylated | ✓ | further glycosylating its C3-OH | ✓ | could be glycosylated | ✓ | could be glycosylated | ✓ | could be glycosylated | ✓ | could catalyze | ✓ | not affected | ✓ | most number of substrates | ✓ | –
B3 | ✓ | could be glycosylated | – | – | further glycosylating its C3-OH | – | – | – | could be glycosylated | ✓ | – | – | – | – | – | ✓ | least number of substrates | ✓ | –
